Laboratory results as given in patent US20220372138A1 (IOMX THERAPEUTICS, published 2022).

Legend:
[1] = biological target: T1, extracellular domain (ECD) of human IGSF11 (VSIG3), recombinant (human, UniProt Q5DX21 23-241); assay: ELISA RFU 0.5-1.0
T1 construct: biotinylated where captured on streptavidin; tags of the reagent not always stated; also called IGSF11 (ECD domain); ECD-IGSF11
T1 sequence: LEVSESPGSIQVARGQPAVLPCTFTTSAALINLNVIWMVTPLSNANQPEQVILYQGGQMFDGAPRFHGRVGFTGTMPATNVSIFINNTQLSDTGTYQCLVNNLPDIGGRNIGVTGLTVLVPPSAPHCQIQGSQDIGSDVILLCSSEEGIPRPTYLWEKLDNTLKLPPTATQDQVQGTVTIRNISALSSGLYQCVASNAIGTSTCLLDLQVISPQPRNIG

[2] = biological target: T2, ECD of murine IGSF11, recombinant biotinylated (mouse, UniProt P0C673 23-240); assay: ELISA RFU 0.1-0.5
T2 construct: whole entry named; also called Mouse IGSF11
T2 sequence: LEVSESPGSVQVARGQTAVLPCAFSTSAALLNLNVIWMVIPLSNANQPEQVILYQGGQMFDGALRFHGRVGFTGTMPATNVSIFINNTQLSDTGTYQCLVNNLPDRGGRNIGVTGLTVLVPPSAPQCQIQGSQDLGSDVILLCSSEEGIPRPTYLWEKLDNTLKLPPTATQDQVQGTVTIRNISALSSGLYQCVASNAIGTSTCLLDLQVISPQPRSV

[3] = biological target: T3, IgC2 domain of human IGSF11 fused to murine IgG2a Fc (human, UniProt Q5DX21 137-241); assay: IgG ELISA;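 note: ELISA binding of IgG antibodies to plate-coated IGSF11 Fc-fusion proteins (full-length ECD, IgV or IgC2 domain), detected via HRP-labelled anti-human IgG with TMB development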
T3 construct: not shown: murine IgG2a Fc-region
T3 sequence: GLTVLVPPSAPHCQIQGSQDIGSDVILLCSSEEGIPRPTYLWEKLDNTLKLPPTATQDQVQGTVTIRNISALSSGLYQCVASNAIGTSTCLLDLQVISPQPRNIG

[4] = biological target: T4, full-length ECD of human IGSF11 fused to murine Fc (human, UniProt Q5DX21 23-241); assay: IgG ELISA;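 note: ELISA binding of IgG antibodies to plate-coated IGSF11 Fc-fusion proteins (full-length ECD, IgV or IgC2 domain), detected via HRP-labelled anti-human IgG with TMB development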
T4 construct: also called Fc-fusion IGSF11 ECD; not shown: murine Fc
T4 sequence: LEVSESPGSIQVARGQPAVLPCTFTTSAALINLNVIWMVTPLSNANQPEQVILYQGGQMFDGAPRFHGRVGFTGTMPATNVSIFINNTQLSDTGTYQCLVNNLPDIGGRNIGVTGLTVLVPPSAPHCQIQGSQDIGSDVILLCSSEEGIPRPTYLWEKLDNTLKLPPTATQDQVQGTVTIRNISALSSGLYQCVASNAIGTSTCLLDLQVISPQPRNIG

Streptavidin = Streptavidin (UniProt P22629 37-163, limits assumed); assay: Fab ELISA
Streptavidin, sequence (P22629 37-163 limits assumed): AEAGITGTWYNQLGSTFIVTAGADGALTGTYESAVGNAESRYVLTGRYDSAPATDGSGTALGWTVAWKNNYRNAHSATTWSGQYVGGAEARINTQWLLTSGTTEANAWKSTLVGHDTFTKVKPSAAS

Row | Binder | ELISA binding signal (RFU) [1] [rfu] | ELISA binding signal (RFU) [2] [rfu] | EC50 [3] [nM] | A450 (Streptavidin) | further results
1 | A-009 (scFv format) (scFv, V domains shown, scFv) VH: QVQLVQSGAEVKKPGSSVKVSCKASGGTFSSYAISWVRQAPGQGLEWMGGIIPIFGTANYAQKFQGRVTITADESTSTAYMELSSLRSEDTAVYYCARGRGFGELYFDYWGQGTLVTVSS VL: ETTLTQSPATLSVSPGERATLSCRASQGVRSNIAWYQQKPGQAPRLLIYDSSTRATGIPARFSGSGSGTEFTLTISSLQSEDFAVYSCQQYKNWPRTFGQGTKVEIK | 0.5 to 1 | 0.1 to 0.5 |  |  | 
2 | C-010 (IgG1 format) (antibody, V domains shown) VH: QVQLVQSGAEVKKPGSSVKVSCKASGGTFSSYAISWVRQAPGQGLEWMGGIIPIFGTANYAQKFQGRVTITADESTSTAYMELSSLRSEDTAVYYCARGYGEYYPAFDVWGQGTLVTVSS VL: SYELTQPPSVSVSPGQTASITCSGDKLGDKYASWYQQKPGQSPVLVIYQDSKRPSGIPERFSGSNSGNTATLTISGTQAEDEADYYCASYAHTHSTWVFGGGTKLTVL |  |  | 1 to 20 |  | EC50 [4]: 20 to 100 nM
3 | C-008 (Fab format) (Fab, V domains shown, Fab from E. coli lysate) VH: EVQLLESGGGLVQPGGSLRLSCAASGFTFSSYAMSWVRQAPGKGLEWVSAISGSGGSTYYADSVKGRFTISRDNSKNTLYLQMNSLRAEDTAVYYCTTDNGHNRDWGQGTLVTVSS VL: ASVLTQPPSVSAAPGQKVTISCSGSSSNIGNNYVSWYQQLPGTAPKLLIYDNNKRPSGIPDRFSGSKSGTSATLGITGLQAEDEADYYCGTWTRSSGVFGGGTKLTVL |  |  |  | < 0.1 | 
4 | C-006 (IgG1 format) (antibody, V domains shown) VH: not shown VL: DIQMTQSPSSLSASVGDRVTITCRASQSISSYLNWYQQKPGKAPKLLIYAASSLQSGVPSRFSGSGSGTDFTLTISSLQPEDFATYYCQQSHQSPPITFGQGTKVEIK |  |  | < 1 |  | EC50 [4]: 1 to 20 nM
5 | A-014 (scFv format) (scFv, V domains shown, scFv) VH: QVQLVQSGAEVKKPGASVKVSCKASGYTFNDYYIHWVRQAPGQGLEWMGWFNPSTGGANYAQKFQGRVTMTRDTSISTAYLEVSSLRSDDTAVYYCARGNSPDLDYWGQGTLVTVSS VL: DIQMTQSPDSLTVSLGERATINCKSSQSLLHSSNNKNYLAWYQQRPGQPPKLLIYWASTRQSGVPDRFSGSGSGTDFTLTINSLQADDMAVYYCQQYYTTTPNTFGQGTKLEIK | 0.5 to 1 | 0.1 to 0.5 |  |  | 
6 | C-005 (Fab format) (Fab, V domains shown, Fab from E. coli lysate) VH: not shown VL: SYELTQPPSVSVSPGQTASITCSGDKLGDKYASWYQQKPGQSPVLVIYQDSKRPSGIPERFSGSNSGNTATLTISGTQAEDEADYYCHSYTGKPSQVVFGGGTKLTVL |  |  |  | < 0.1 | 
7 | C-009 (Fab format) (Fab, V domains shown, Fab from E. coli lysate) VH: not shown VL: SYELTQPPSVSVSPGQTASITCSGDKLGDKYASWYQQKPGQSPVLVIYQDSKRPSGIPERFSGSNSGNTATLTISGTQAEDEADYYCQSYSGSSTLHVFGGGTKLTVL |  |  |  | < 0.1 | 
8 | C-014 (IgG1 format) (antibody, V domains shown) VH: not shown VL: SYELTQPPSVSVSPGQTASITCSGDKLGDKYASWYQQKPGQSPVLVIYQDSKRPSGIPERFSGSNSGNTATLTISGTQAEDEADYYCSTYTVTSSVVVFGGGTKLTVL |  |  | < 1 |  | EC50 [4]: 1 to 20 nM
9 | C-023 (IgG1 format) (antibody, V domains shown) VH: not shown VL: SYELTQPPSVSVSPGQTASITCSGDKLGDKYASWYQQKPGQSPVLVIYQDSKRPSGIPERFSGSNSGNTATLTISGTQAEDEADYYCHTWTHHSLAVVFGGGTKLTVL |  |  | < 1 |  | EC50 [4]: < 1 nM
10 | C-013 (IgG1 format) (antibody, V domains shown) VH: not shown VL: SYELTQPPSVSVSPGQTASITCSGDKLGDKYASWYQQKPGQSPVLVIYQDSKRPSGIPERFSGSNSGNTATLTISGTQAEDEADYYCASYLHTPKQFVFGGGTKLTVL |  |  | < 1 |  | EC50 [4]: 1 to 20 nM
11 | A-024 (scFv format) (scFv, V domains shown) VH: QMQLVQSGAEVKKPGSSVKVSCKASGGTFSSYAISWVRQAPGQGLEWMGWISAYNGNTNYAQKLQGRVTMTTDTSTSTAYMELRSLRSDDTAVYYCASLGSYGYTGAFDIWGQGTMATVSS VL: QSALTQPASVSGSPGQSITISCTGTSSDVGGYNYVSWYQQHPGKAPKLMIYEVSNRPSGVSNRFSGSKSGNTASLTISGLQAEDEADYYCSSYTSSSTLVVFGGGTKLTVL | 0.5 to 1 | 0.1 to 0.5 |  |  | 
12 | A-023 (scFv format) (scFv, V domains shown, scFv) VH: QVQLVQSGAEVKKPGSSVKVSCKASGGTFSSYAISWVRQAPGQGLEWMGGIIPIFGTANYAQKFQGRVTITADESTSTAYMELSSLRSEDTAVYYCARPKYSSGWFYYYGMDVWGQGTTVTVSS VL: QSVLTQPPSVSAAPGQKVTISCSGSSSNIGNNYVSWYQQLPGTAPKLLIYDNNKRPSGIPDRFSGSKSGTSATLGITGLQTGDEADYYCGTWDSSLSVVFGGGTKLTVL | 0.5 to 1 | 0.1 to 0.5 |  |  | 
13 | C-022 (Fab format) (Fab, V domains shown, Fab from E. coli lysate) VH: EVQLLESGGGLVQPGGSLRLSCAASGFTFSSYAMSWVRQAPGKGLEWVSAISGSGGSTYYADSVKGRFTISRDNSKNTLYLQMNSLRAEDTAAYYCARMAAGASWGTFDYWSQGTLVTVSS VL: DIQMTQSPSSLSASVGDRVTITCRASQSISSYLNWYQQKPGKAPKLLIYAASSLQSGVPSRFSGSGSGTDFTLTISSLQPEDFATYYCQQRSGSPLTFGQGTKVEIK |  |  |  | < 0.1 | 
14 | C-021 (IgG1 format) (antibody, V domains shown) VH: not shown VL: DIQMTQSPSSLSASVGDRVTITCRASQSISSYLNWYQQKPGKAPKLLIYAASSLQSGVPSRFSGSGSGTDFTLTISSLQPEDFATYYCQQWSGLPLTFGQGTKVEIK |  |  | < 1 |  | 
15 | C-007 (Fab format) (Fab, V domains shown, Fab from E. coli lysate) VH: not shown VL: ASVLTQPPSVSAAPGQKVTISCSGSSSNIGNNYVSWYQQLPGTAPKLLIYDNNKRPSGIPDRFSGSKSGTSATLGITGLQAEDEADYYCQLYEEEHSTWVFGGGTKLTVL |  |  |  | < 0.1 | 
16 | C-026 (Fab format) (Fab, V domains shown, Fab from E. coli lysate) VH: not shown VL: ASVLTQPPSVSAAPGQKVTISCSGSSSNIGNNYVSWYQQLPGTAPKLLIYDNNKRPSGIPDRFSGSKSGTSATLGITGLQAEDEADYYCASYSSETSGWVFGGGTKLTVL |  |  |  | < 0.1 | 
17 | C-002 (IgG1 format) (antibody, V domains shown) VH: not shown VL: ASVLTQPPSVSAAPGQKVTISCSGSSSNIGNNYVSWYQQLPGTAPKLLIYDNNKRPSGIPDRFSGSKSGTSATLGITGLQAEDEADYYCLSYTTSEHHLVFGGGTKLTVL |  |  | < 1 |  | EC50 [4]: 1 to 20 nM
18 | C-001 (Fab format) (Fab, V domains shown, Fab from E. coli lysate) VH: not shown VL: ASVLTQPPSVSAAPGQKVTISCSGSSSNIGNNYVSWYQQLPGTAPKLLIYDNNKRPSGIPDRFSGSKSGTSATLGITGLQAEDEADYYCGSWLEERSQYVFGGGTKLTVL |  |  |  | < 0.1 | 
19 | A-021 (scFv format) (scFv, V domains shown, scFv) VH: QVQLVQSGAEVKKPGASVKVSCKASGYTFTSYGISWVRQAPGQGLEWMGWISAYNGNTNYAQKLQGRVTMTTDTSTSTAYMELRSLRSDDTAVYYCARVPAWSGQFDYWGQGTLVTVSS VL: QSALTQPASVSGSPGQSITISCTGTSSDVGGYNYVSWYQQHPGKAPKLMIYEVTNRPSGVSDRFSGSKSANTASLTISELQAEDEAVYYCNSYTSGPTYVLFGGGTQLTVL | 0.5 to 1 | 0.1 to 0.5 |  |  | 
20 | A-017 (scFv format) (scFv, V domains shown, scFv) VH: QVQLVQSGAEVKKPGASVKVSCKASGYTFTGYYMHWVRQAPGQGLEWMGWINPNSGNTGYAQKFQGRVTMTRNTSISTAYMELSSLRSEDTAVYYCARGGQQQLVLDDYWGQGTLVTVSS VL: DIVLTQSPASLSASVGDRITITCQASQDIRHHLNWFQHKPGKAPKLLISDSSNLETGVPSRFSGSGSGTDFSFTISRLQPEDIATYYCQQYDSLPRTFGQGTKLEIK | 0.5 to 1 | 0.1 to 0.5 |  |  | 
21 | A-005 (scFv format) (scFv, V domains shown, scFv) VH: EVQLVESGGGLIQPGGSLRLSCAASGFTVSSNYMSWVRQAPGKGLEWVSVIYSGGSTYYADSVKGRFTISRDNSKNTLYLQMNSLRAEDTAVYYCARGNPYYYGDLQVNFDYWGQGTLVTVSS VL: QAVVTQEPSLTVSPGETVTLTCASSTGAVTSGYYPNWFQQRPGQAPRALIYSTSNKDSWTPARFSGSLLGGKAALTLSGVQPEDEAEYYCLLYYGGAWVFGGGTKLTVL | 0.5 to 1 | 0.1 to 0.5 |  |  | 
22 | A-002 (scFv format) (scFv, V domains shown, scFv) VH: EVQLVESGGGLIQPGGSLRLSCAASGFTVSSNYMSWVRQAPGKGLEWVSVIYSGGSTYYADSVKGRFTISRDNSKNTLYLQMNSLRAEDTAVYYCARGNPYYYGDLQVNFDYWGQGTLVTVSS VL: QAVVTQEPSLTVSPGGTVTPTCGSSTGAVTSGNLPNWFQQKPGQAPRALIYSTSNKHSWTPARISGSLLGGKAALTLSGVQPEDEAEYYCLLYYGGAWVFGGGTKLTVL | 0.5 to 1 | 0.1 to 0.5 |  |  | 
